Reference: patent US20120028347A1 (TOKAI UNIVERSITY EDUCATIONAL SYSTEM, published 2012)

How the values were obtained:
[1] = molecular target: T1, baculovirus-derived recombinant human CD4 (rhCD4) (human, UniProt P01730 26-396, limits assumed); test: ELISA, purified Fab on coated rhCD4 (50 ng/well); amount of antibody at OD650 of about 0.7 to 0.8, where 50% of the maximum binding was observed
T1 construct: Bought reagent, coated on ELISA plates at 50 ng/well
Method: Thereafter, the wells were washed with PBS-T (PBS-0.05% Tween) once. Then, 300 μL of PBS-T-SM (PBS-T-1% skim milk) was added thereto, so as to block it at room temperature for 1 hour. Subsequently, the PBS-T-SM was removed, 50 μL of an antibody sample diluted with PBS-T-SM was then added thereto, and the mixture was then left at room temperature for 1 hour. Thereafter, the sample was removed, and the residue was then washed with PBS-T three times. A PO-bound anti-human IgG-Fab antibody was diluted with PBS-T at a ratio of 1:2000, and 50 μL of the thus diluted solution was then added to the wells. The obtained mixture was left at room temperature for 1 hour. Thereafter, the secondary antibody was removed, and the residue was then washed with PBS-T three times. 50 μL of a TMB reagent was added to the resultant, so as to develop color. The color was measured at OD of 650 nm.
(§1) The percentage of peripheral B cells producing human CD4-reactive antibodies in total peripheral B cells was assumed to be approximately 0.0013%. The binding of the IgM Fab of each of the purified three clones to rhCD4 was examined by ELISA (FIG. 2).

[2] = molecular target: T1, baculovirus-derived recombinant human …; test: ELISA, purified Fab on coated rhCD4
Method: The rhCD4 was dissolved in a 50 mM carbonate buffer (pH 9.6) solution to a concentration of 2 μg/mL, and the thus prepared solution was dispensed in an amount of 50 μL each into the wells on an ELISA plate, and it was then left at 4° C. overnight. Thereafter, the wells were washed with PBS-T (PBS-0.05% Tween) once. Then, 300 μL of PBS-T-SM (PBS-T-1% skim milk) was added thereto, so as to block it at room temperature for 1 hour. Subsequently, the PBS-T-SM was removed, 50 μL of an antibody sample diluted with PBS-T-SM was then added thereto, and the mixture was then left at room temperature for 1 hour. Thereafter, the sample was removed, and the residue was then washed with PBS-T three times. A PO-bound anti-human IgG-Fab antibody was diluted with PBS-T at a ratio of 1:2000, and 50 μL of the thus diluted solution was then added to the wells. The obtained mixture was left at room temperature for 1 hour. Thereafter, the secondary antibody was removed, and the residue was then washed with PBS-T three times. 50 μL of a TMB reagent was added to the resultant, so as to develop color. The color was measured at OD of 650 nm.
as §1

B1: HO538-213 (Fab, V domains shown)
VH: QVQLVQSGGGVVQPGRSLRLSCAASGFTFSSYGMHWVRQAPGKGLEWVAVVCYDGRTTYYADSVKGRFTISRDISENTLYLQMNSLRAEDTAVYYCAKDLNKGYCNNGGCYGVDCWGQGTLVTVSS
VL: EIVMTQSPATLSLSPGERATLSCRASQSVNNYLAWYQQRPGQAPSLLIYDASNRATGIPARFSGSGSGTDFTLTISSLEPEDFAVYYCQQRGNWPHTFGQGTKLEIKR
notes: Human IgM Fab (mu Fd and kappa light chain) expressed in E. coli JM109 from the vector pFab1-His2 and purified on an anti-Fab column; No sentence says it outright
Which results are given for B1?
EC50 [1]: ~8 µg/mL; affinity relative to the other clones (HO702-001 and HO702-016) [2]: 0.125 fold
